Assay in all cases: EMSA
What all share (details): 20 mM Tris-HCl pH 8.0, 1 mM DTT, 50 mM KCl, 5 mM MgCl2, 0.05 mg/mL BSA, 10% glycerol

Data set [1] addresses T1, IdeR (Mycobacterium bovis BCG) (UniProt P9WMH1).
T1 sequence: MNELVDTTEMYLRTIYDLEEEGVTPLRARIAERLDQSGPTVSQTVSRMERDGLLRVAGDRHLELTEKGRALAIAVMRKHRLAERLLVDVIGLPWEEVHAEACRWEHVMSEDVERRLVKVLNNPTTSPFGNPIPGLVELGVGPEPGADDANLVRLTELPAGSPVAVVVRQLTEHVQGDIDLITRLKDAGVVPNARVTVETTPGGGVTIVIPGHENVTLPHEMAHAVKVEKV

The target of data set [2] is T2, IdeR;Zur (Mycobacterium bovis BCG;Mycobacterium bovis BCG) (UniProt P9WMH1+P9WN85).
T2 sequence 1: T1 sequence
T2 sequence 2: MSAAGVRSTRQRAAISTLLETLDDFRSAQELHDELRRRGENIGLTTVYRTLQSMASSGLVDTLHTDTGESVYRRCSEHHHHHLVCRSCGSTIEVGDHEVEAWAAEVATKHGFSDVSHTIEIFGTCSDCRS

Data set [3] has as its target T3, Zur (Mycobacterium bovis BCG) (UniProt P9WN85).
T3 sequence: T2 sequence 2

One sequence from PMC10580935 can be followed below.

Turning to “ACGTCAGCGTCTACCTTGCCATTTACCCGAGACGCGACGGGGGAAGCGGCCACCATGCCAATGTCATCACGCTCCACGCCTCCGCTGTCTCCTTCACCTACGCCCGCCATCGGCCGATCCGCCTGAACTTTGCCCCGAAGTTAGCATTGCATAAGCTAACTGTCGAGGCGACCGCGACCAATCGACTCGGCCCTGCGGCCAAGCTTTTAGGCACGGCTGGCAAGATCATGACCGATACTCCATTTCGTTGGTAGCCCGATATGCAGAGTGTAG (double strand) [esx-3p2]”, the binding entry was “binds” in data set [1], “binds” in data set [2] and “no binding” in data set [3].
